Data published in patent US20240076330A1.

How the values were obtained:
IFNGR1 (human) = IFNGR1 (human) (UniProt P15260); assay: cell-based or functional assay
[1] = target: IL-6 receptor (IL6R) (human) (UniProt P08887); assay: cell-based or functional assay
Sequence of UniProt P08887 (P08887 20-468): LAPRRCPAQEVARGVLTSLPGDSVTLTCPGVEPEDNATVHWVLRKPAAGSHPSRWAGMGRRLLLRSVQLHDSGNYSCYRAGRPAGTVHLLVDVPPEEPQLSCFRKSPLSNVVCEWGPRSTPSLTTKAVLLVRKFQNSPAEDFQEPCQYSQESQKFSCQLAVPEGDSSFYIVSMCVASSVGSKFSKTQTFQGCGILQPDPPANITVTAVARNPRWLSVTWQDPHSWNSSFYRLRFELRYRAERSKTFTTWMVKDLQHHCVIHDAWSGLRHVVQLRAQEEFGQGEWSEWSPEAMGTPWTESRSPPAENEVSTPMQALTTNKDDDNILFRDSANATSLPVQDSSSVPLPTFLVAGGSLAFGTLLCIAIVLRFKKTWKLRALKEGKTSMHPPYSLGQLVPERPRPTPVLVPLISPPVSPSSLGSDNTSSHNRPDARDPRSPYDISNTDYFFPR

Sequence of UniProt P15260 (P15260 18-489): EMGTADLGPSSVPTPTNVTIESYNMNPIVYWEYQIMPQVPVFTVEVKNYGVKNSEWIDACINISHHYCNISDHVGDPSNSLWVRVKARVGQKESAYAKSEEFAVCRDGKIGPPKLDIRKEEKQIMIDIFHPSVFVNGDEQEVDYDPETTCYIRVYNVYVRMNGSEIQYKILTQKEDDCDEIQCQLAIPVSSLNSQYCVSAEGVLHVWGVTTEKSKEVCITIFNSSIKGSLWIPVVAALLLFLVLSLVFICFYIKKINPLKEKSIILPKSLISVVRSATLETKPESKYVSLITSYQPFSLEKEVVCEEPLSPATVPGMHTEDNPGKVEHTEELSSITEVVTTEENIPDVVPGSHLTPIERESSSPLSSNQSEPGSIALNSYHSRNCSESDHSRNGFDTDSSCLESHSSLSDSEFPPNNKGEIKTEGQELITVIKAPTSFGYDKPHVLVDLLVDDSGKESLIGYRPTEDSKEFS

pSTAT1 levels after IFNγ in THP1-Cas9 cells with gRNAs targeting IFNGR1 (fold decrease) (IFNGR1 (human))	percent of cells with increased pSTAT1 after IFNγ, clusters with gRNAs targeting IFNGR1 (IFNGR1 (human)) [%]	pSTAT1 levels after IL-6 in THP1-Cas9 cells with gRNAs targeting IL6R (fold reduction) [1]	pSTAT3 levels after IL-6 in THP1-Cas9 cells with gRNAs targeting IL6R (fold reduction) [1]	Substance
15	25	–	–	IFNγ (from UniProt P01579 24-166) (ligand)
–	–	2	2	IL-6 (from UniProt P05231 30-212) (ligand)
